Reference: PMC10641686, “Fcγ receptor binding is required for maximal immunostimulation by CD70-Fc” (Frontiers in Immunology, 2023)
Where two headings read alike, the source gives them in different places. Blank lines part the entries; values can stand above or below the molecule they belong to.

Key:
[1] = target: dimer of trimer CD70-Fc fusion protein (dtCD70-Fc) (mouse) (UniProt O55237); assay: SDS-PAGE under non-reducing and reducing conditions; 5 ug purified protein on a 10% SDS-polyacrylamide gel, Coomassie blue; disulfide-linked dimer of the Fc fusion chain
[2] = target: T1, Recombinant mouse CD27-human Fc (mouse, UniProt P41272 24-182); assay: SPR; apparent; Biacore T200, HBS-EP+; mouse CD27-human Fc captured on anti-human IgG coupled to a CM5 chip; CD70 fusion proteins (1.56, 6.25, 25 and 100 nM) injected at 30 ul/min; KD from ka and kd
T1 construct: CD27, mouse; Captured by anti-human IgG on the chip; no catalogue number is printed; also called CD27-Fc; mouse CD27 protein; source: bought: R&D systems
T1 sequence (looked up): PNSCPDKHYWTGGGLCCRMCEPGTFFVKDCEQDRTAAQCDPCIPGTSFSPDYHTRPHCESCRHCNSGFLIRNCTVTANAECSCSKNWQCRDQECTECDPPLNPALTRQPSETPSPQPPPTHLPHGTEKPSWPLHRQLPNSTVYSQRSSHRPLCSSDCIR

[3] = target: FcγRs (mouse (endogenous in C57BL/6 mice))
[4] = target: anti-CD27 mouse IgG1 (recombinant, from hybridoma AT124-1) (mouse); assay: SPR; about 2000 RU of dtCD70-Fc or anti-CD27 immobilised on a CM5 chip by amine coupling; mouse FcRn (0, 0.8, 4, 20, 100, 500 nM) injected 3 min at 30 ul/min in HBS-EP+ pH 6; KD from steady-state binding levels
[5] = target: dimer of trimer CD70-Fc fusion protein (dtCD70-Fc) (mouse) (UniProt O55237); assay: as above

Molecule: dimer of trimer CD70-Fc fusion protein (dtCD70-Fc) (from UniProt O55237 41-195; O55237 41-195; O55237 41-195)
stoichiometry N [1]: 2
Kd [2]: 0.6 nM

B2: Soluble trimeric CD70 (tCD70) (ligand, mouse, UniProt O55237 41-195, looked up)
chain: SGLLSKQQQRLLEHPEPHTAELQLNLTVPRKDPTLRWGAGPALGRSFTHGPELEEGHLRIHQDGLYRLHIQVTLANCSSPGSTLQHRATLAVGICSPAAHGISLLRGRFGQDCTVALQRLTYLVHGDVLCTNLTLPLLPSRNADETFFGVQWICP
notes: CD70, mouse, extracellular domain S41-P195; Predicted chain MW 51.5 kDa; also called CD4 fusion protein; not shown: CD4 domains 3 and 4 (mouse), N-terminal, kept
Kd ([2]; both partners purified): 1.2 nM

Other lines, results leading:

OT-I T cell expansion in vivo during the primary response, Endo H treated dtCD70-Fc (wild-type Fc) against Endo H treated dtCD70-Fc(D265A) [3]: 3 fold
Molecule: Endo H treated dtCD70-Fc (from UniProt O55237 41-195; O55237 41-195; O55237 41-195) (Fc fusion)

Kd [4]: 49 nM
Kd [5]: 46 nM
B1: recombinant mouse FcRn (receptor)
chain: SETRPPLMYHLTAVSNPSTGLPSFWATGWLGPQQYLTYNSLRQEADPCGAWMWENQVSWYWEKETTDLKSKEQLFLEALKTLEKILNGTYTLQGLLGCELASDNSSVPTAVFALNGEEFMKFNPRIGNWTGEWPETEIVANLWMKQPDAARKESEFLLNSCPERLLGHLERGRRNLEWKEPPSMRLKARPGNSGSSVLTCAAFSFYPPELKFRFLRNGLASGSGNCSTGPNGDGSFHAWSLLEVKRGDEHHYQCQVEHEGLAQPLTVDLDSSARSS
